Measurements: patent publication US20150024066A1, “METHODS FOR […] TREATING EXCESS WEIGHT USING OXYNTOMODULIN” (IMPERIAL INNOVATIONS, published 2015)

What was measured:
[1] = target: T1, GLP-1 receptor (rat, UniProt P32301); assay: competition of [^125I]GLP-1 binding to rat hypothalamic membranes, unlabeled peptide varied
Protocol: Membranes were incubated at room temperature for 90 min. Bound and free radioactivity were separated by centrifugation (2 min, 4° C.). Pelleted membranes were washed with assay buffer (0.5 ml, ice-cold), and the membranes were centrifuged as described above. The supernatant was removed, and the radioactivity in the pellet was counted using a γ-counter. […] All curves were constructed with points in triplicate. IC₅₀ values were calculated using the Prism 3 program (GraphPad Software, Inc., San Diego, Calif.).

[2] = target: T1, GLP-1 receptor; assay: competition of [^125I]GLP-1 binding to rat hypothalamic membranes; reference GLP-1

HSQGTFTSDYSKYLDSRRAQDFVQWLMNTKRNKNNIA [oxyntomodulin (OXM)]
IC50 [1]: 8.2 nM | affinity relative to GLP-1 [2]: ~2 orders of magnitude weaker
